Results taken from PMC4749977, “Alp7/TACC-Alp14/TOG generates long-lived, fast-growing MTs by an unconventional mechanism” (Scientific Reports, 2016).

Tests used:
[1] = molecular target: the molecule itself; assay: DIC video microscopy of microtubule growth; addition of GTP-tubulin to plus and minus ends of MTs nucleated by axoneme fragments; growth rate against tubulin concentration, linear regression, apparent rate constants; 100 mM K-PIPES, 1 mM MgSO4, 2 mM EGTA, 1 mM DTT pH 6.9, 1 mM GTP, no glycerol, 25 °C
[2] = molecular target: T1, Alp7-14 complex (full length Alp14 mixed with full length Alp7) (S. pombe, UniProt O94534 1-809; Q9URY2 1-474, biotin on the AviTag (BirA ligase co-expressed to ensure biotinylation)); assay: glycerol gradient centrifugation; 5-40% glycerol gradient of purified Alp14, Alp7 and tubulin, alone or mixed; tubulin as GTP-tubulin where stated; fractions on SDS-PAGE with Coomassie staining; conditions: both partners purified
T1 construct: Alp14 of S. pombe, full length, as the chain of m1; Alp7 of S. pombe, full length, as the chain of m2; also called Alp7/TACC-Alp14/TOG; source: each from Sf9 insect cells (baculovirus), purified, then mixed
T1 sequence (looked up) 1: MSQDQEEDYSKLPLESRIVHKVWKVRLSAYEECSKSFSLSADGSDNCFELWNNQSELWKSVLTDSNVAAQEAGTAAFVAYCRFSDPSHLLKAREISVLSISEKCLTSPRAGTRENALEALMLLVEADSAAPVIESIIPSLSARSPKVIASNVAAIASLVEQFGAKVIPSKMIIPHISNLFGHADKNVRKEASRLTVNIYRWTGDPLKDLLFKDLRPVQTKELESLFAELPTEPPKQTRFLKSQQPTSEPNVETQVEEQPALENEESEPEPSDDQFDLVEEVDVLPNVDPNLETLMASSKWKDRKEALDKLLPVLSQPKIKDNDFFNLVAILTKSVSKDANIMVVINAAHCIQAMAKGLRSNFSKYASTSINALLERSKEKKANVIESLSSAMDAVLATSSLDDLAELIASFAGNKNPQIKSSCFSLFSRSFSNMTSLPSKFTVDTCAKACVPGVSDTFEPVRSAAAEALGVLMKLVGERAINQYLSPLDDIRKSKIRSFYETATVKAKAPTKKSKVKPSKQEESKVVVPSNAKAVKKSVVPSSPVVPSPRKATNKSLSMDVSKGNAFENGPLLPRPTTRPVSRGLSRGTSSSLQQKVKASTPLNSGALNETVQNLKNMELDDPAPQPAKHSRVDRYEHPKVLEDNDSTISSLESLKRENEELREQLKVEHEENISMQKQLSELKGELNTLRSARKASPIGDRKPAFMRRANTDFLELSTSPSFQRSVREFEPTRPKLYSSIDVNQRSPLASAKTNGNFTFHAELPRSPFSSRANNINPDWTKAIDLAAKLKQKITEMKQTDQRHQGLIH
T1 sequence (looked up) 2: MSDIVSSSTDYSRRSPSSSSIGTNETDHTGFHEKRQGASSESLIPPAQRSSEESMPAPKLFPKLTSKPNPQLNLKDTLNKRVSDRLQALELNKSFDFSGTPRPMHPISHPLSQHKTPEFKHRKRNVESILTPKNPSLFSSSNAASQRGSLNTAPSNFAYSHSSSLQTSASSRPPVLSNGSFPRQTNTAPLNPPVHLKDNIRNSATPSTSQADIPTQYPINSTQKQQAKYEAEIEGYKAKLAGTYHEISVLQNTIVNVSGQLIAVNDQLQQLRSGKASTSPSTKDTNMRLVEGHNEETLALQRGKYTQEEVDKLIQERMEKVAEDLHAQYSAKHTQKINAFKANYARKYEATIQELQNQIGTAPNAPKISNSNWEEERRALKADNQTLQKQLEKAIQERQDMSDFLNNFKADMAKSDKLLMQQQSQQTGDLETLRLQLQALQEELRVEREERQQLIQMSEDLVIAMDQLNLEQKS

[3] = molecular target: T2, Alp7 with Alp14-GFP (tip tracking Alp7-14 complexes) (S. pombe, UniProt O94534 1-809; Q9URY2 1-474, biotin on the AviTag (BirA ligase co-expressed to ensure biotinylation)); assay: TIRF microscopy of Alp14-GFP on dynamic microtubules; dual-TIRF; MTs nucleated by immobilized Alexa488 labeled seeds using 6 μM S. pombe tubulin doped with 2.5% (150 nM) rhodamine labeled brain tubulin; Alp14-GFP without or with Alp7; conditions: both partners purified
T2 construct: Alp14 of S. pombe, as the chain of m9; Alp7 of S. pombe, full length, as the chain of m2; source: each from Sf9 insect cells (baculovirus), purified, added together to the assay
T2 sequence (looked up) 1: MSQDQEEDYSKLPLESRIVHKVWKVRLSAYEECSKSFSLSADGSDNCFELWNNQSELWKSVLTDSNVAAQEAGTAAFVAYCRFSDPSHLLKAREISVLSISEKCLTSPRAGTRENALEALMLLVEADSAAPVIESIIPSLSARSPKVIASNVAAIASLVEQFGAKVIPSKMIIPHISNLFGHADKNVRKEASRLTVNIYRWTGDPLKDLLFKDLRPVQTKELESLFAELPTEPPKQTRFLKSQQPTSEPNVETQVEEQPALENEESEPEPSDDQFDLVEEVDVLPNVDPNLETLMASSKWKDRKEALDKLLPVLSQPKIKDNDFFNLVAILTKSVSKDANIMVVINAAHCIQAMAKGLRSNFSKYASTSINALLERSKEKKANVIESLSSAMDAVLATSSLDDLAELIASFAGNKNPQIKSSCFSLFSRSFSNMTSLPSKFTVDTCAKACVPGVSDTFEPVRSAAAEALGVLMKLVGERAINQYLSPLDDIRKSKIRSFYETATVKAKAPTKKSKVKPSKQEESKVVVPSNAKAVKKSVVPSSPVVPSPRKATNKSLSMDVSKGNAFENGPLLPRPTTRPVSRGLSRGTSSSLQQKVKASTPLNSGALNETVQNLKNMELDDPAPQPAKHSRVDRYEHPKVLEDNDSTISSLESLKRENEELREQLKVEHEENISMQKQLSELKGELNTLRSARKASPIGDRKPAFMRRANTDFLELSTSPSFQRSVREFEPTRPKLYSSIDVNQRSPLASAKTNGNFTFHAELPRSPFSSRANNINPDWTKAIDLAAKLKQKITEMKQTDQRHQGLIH
T2 sequence (looked up) 2: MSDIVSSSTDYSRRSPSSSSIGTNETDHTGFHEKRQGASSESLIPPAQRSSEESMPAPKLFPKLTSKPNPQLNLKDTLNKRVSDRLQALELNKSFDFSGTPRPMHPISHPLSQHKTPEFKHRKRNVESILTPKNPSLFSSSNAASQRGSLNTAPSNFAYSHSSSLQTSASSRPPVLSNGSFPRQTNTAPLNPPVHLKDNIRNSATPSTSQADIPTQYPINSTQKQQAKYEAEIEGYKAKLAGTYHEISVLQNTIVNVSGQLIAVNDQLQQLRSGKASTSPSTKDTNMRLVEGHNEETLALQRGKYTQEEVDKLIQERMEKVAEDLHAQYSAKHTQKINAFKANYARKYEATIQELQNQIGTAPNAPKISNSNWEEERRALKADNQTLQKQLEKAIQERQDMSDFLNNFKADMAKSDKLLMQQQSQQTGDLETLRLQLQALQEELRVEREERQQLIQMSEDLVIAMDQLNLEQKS

B1: S. pombe single isoform (α1β) tubulin (complex)
chain 1: MREVISVHVGQAGVQIGNACWELYCLEHGIGPDGFPTENSEVHKNNSYLNDGFGTFFSETGQGKFVPRSIYVDLEPNVIDQVRTGPYKDLFHPEQMVTGKEDASNNYARGHYTVGKEMIDSVLERIRRMADNCSGLQGFLVFHSFGGGTGSGLGALLLERLNMEYGKKSNLQFSVYPAPQVSTSVVEPYNSVLTTHATLDNSDCTFMVDNEACYDICRRNLDIERPTYENLNRLIAQVVSSITASLRFAGSLNVDLNEFQTNLVPYPRIHFPLVTYSPIVSAAKAFHESNSVQEITNQCFEPYNQMVKCDPRTGRYMATCLLYRGDVIPRDVQAAVTSIKSRRTIQFVDWCPTGFKIGICYEPPQHVPGSGIAKVNRAVCMLSNTTSIAEAWSRLDHKFDLMYSKRAFVHWYVGEGMEEGEFSEAREDLAALERDYEEVGQDSMDNEMYEADEEY
chain 2: MREIVHIQAGQCGNQVGAAFWSTIADEHGLDSAGIYHGTSEAQHERLNVYFNEAAGGKYVPRAVLVDLEPGTMDAVKSGKFGNLFRPDNIIYGQSGAGNIWAKGHYTEGAELADAVLDVVRREAEACDALQGFQLTHSLGGGTGSGMGTLLLSKIREEYPDRMMATFSVAPAPKSSDTVVEPYNATLSMHQLVENSDETFCIDNEALSSIFANTLKIKSPSYDDLNHLVSAVMAGVTTSFRFPGELNSDLRKLAVNMVPFPRLHFFMVGFAPLAAIGSSSFQAVSVPELTQQMFDANNMMVAADPRHGRYLTVAALFRGKVSMKEVDEQIRSVQTKNSAYFVEWIPDNVLKAVCSVPPKDLKMSATFIGNSTSIQEIFRRLGDQFSAMFRRKAFLHWYTGEGMDEMEFTEAESNMNDLVSEYQQYQEAGIDEGDEDYEIEEEKEPLEY
notes: alpha-1 tubulin of S. pombe, untagged, endogenous; beta tubulin of S. pombe, untagged, endogenous; Used as free heterodimer (GTP or GDP form) in the gradients and polymerised into dynamic microtubules in the microscopy assays; the assay's format tells which; also called single isoform S. pombe tubulin; S. pombe tubulin; source: purified from S. pombe single isoform strain (mmsp174): ion exchange, …
**Q.** How did the “Kd = koff/kon (critical concentration), minus end” value [1] turn out when B1 was run?
**A.** The value was 900 nM.

**Q.** What about the “Kd = koff/kon (critical concentration), plus end” value [1] of the same binder?
**A.** The value was 1200 nM.

**Q.** Does B1 bind [2]?
**A.** Result: binds

**Q.** Does B1 bind [3]?
**A.** Result: binds
